Experimental data as given in article PMC4048220, “Exploring the Electron Transfer Pathway in the Oxidation of Avermectin by CYP107Z13 in Streptomyces ahygroscopicus ZB01” (PLoS ONE, 2014).

Tests used:
[1] = substrate: NC(=O)C1=CN([C@@H]2O[C@H](COP(=O)(O)OP(=O)(O)OC[C@H]3O[C@@H](n4cnc5c(N)ncnc54)[C@H](O)[C@@H]3O)[C@@H](O)[C@H]2O)C=CC1; test: spectrophotometric DCPIP reduction; assay type: biochemical, Streptomyces ahygroscopicus; settings: DCPIP as electron acceptor
[2] = substrate: NC(=O)C1=CN([C@@H]2O[C@H](COP(=O)(O)OP(=O)(O)OC[C@H]3O[C@@H](n4cnc5c(N)ncnc54)[C@H](O)[C@@H]3O)[C@@H](O)[C@H]2O)C=CC1; test: spectrophotometric DCPIP reduction; assay type: biochemical, Streptomyces hygroscopicus; settings: DCPIP as electron acceptor

| Protein | Km [1] [µM] | kcat [1] [s⁻¹] | Km [2] [µM] | kcat [2] [s⁻¹] |
| --- | --- | --- | --- | --- |
| FdR28 (Streptomyces ahygroscopicus; V1M) (protein, FAD flavoprotein; pRSET-b (vector His tag), E. coli BL21(DE3), Ni-Sepharose purified; GTG start changed to ATG; cloning primers encode N-terminal MVVGAS, C-terminal TAAYQHR) MVVGASLAGLRAAEALRGEGFTGSLTMIGDELGEPYDRPPLSKQVLTGWVPADNTKLPRRRDVDAEWLLGVPASGLDLANNHVRLADGRQVPFDRVPISTGVRARPWFVESEAALDGVFVVRTREHAEALQRALAAGPSRVLVIGAGFTGSEIASVCRERDIPVTVAELAPAPLVGALGAMIGDVAADVQRAHGVDLRCGVKVTQLEGDAQGRLRRAHFDDGTTVDADVAVVALGGIRNTDWLRDSGLAAGVWGIACDTGCRALDLNGLVTDDVFVAGDVARCPNPIYEYRLISLEHWANAVEQAEVAAHNMVSGQADRWPHLTLPLFWSIQFGINIKSVGVPTFADEVVVTQGSVPDHRFVAAYGYRGRVTAAVSFNNAKWLDHHRRLIETAAPFPPLCPTPDQPADTKPVPVDFPGPALLAQGATVVVTGHDPSERRVTAAYQHR | 25.4 | 6.43 |  |  |
| FdR18 (Streptomyces hygroscopicus) (protein, FAD flavoprotein; pRSET-b (vector His tag), E. coli BL21(DE3), Ni-Sepharose purified; GTG start changed to ATG; cloning primers encode N-terminal MVDAHQT, C-terminal LTSLLP) MVDAHQTFVIVGGGLAGAKAAETLRAEGFTGRVILICDERDHPYERPPLSKGYLLGKEERDSVFVHEPAFYAQARIELHLGQPAVHLDPAARTVRLGDGTLIAYDKLLLATGAEPRRLDVPGTGLAGVHHLRRLAHAERLRGVLASLGRENGHLVIAGAGWIGLEVAAAARSYGAEVTIIEPEPTPLHGILGPELGALFTDLHAEHGVRFHFGARLTEIVGQDGMVVSVRTDDGEEHPAHDVLAAIGAAPRTALAEQAGLDVVDRADGGGIAVDAALRTSDPFIHAAGDVAAADHPLLDTRLRVEHWANALNGGPAAARAMLGQDISYDRVPYFFSDQYDLGMEYSGYAPPGSYDQVVCRGDVGKREFIAFWLREGRVLAGMNVNVWDVAGDVQQLIRSGTPLDPEKLTDPTVPLTSLLP |  |  | 64 | 2.02 |
